± gives the uncertainty stated by the source.

The data set can be described thus: amyloid nucleation score (Sup35N fusion, yeast selection) (log enrichment); library NNK2; higher = more nucleation; inactive = no reads after selection. Put shortly: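 DiMSum was used to calculate nucleation scores as log enrichment of output over input reads, centred on the mode score of non-aggregating sequences. Sequences with fewer than 100 input reads were not scored. Input and output came from Illumina sequencing of plasmid inserts in psi-negative yeast expressing peptides of 20 random codons fused to Sup35N, induced 24 hours with 100 μM copper sulfate and then grown 7 days at 30°C on medium lacking adenine and uracil.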
Substance FNMDGYGRTGVRPFCRYVLN registered an amyloid nucleation score of 0.333 ± 0.61.

FNTGSSMLLLIRVMVGKFGG: the amyloid nucleation score was -1.57 ± 1.1.

Regarding FNVSYSISMMLKRGVCAHCW, the amyloid nucleation score was 6.038 ± 0.034.

As for FNWVEWLFFSMAFKLLVESR, the amyloid nucleation score result is “inactive”.

FPCRGLGGVLW showed an amyloid nucleation score of 1.97 ± 0.14.

Substance FPGRFRGKSLEKRMVM returned an amyloid nucleation score of 0.721 ± 0.46.

With FPIFKHDWLFYWCTPSIKGR, the amyloid nucleation score is -1.06 ± 0.31.

The substance FPNKITVIPSHTSRDNVNTL showed an amyloid nucleation score of 0.261 ± 0.49.

Take FPRDILVS: the amyloid nucleation score was -0.13 ± 0.76.

For FPYIFIWFYGSVGLWRRETL, the amyloid nucleation score turned out to be 0.127 ± 0.79.

Turning to FQFRCCTM, the amyloid nucleation score came to 9.232 ± 0.024.

FQMYTISLRRLVNNKSYARV gave an amyloid nucleation score of 0.319 ± 0.8.

For the substance FQSVLCYE, the amyloid nucleation score was -0.708 ± 0.54.

On to FQWQLMVFSADEFQNMAHMI, for which the amyloid nucleation score came to 0.182 ± 0.79.

On to FQYENNVDNG, for which the amyloid nucleation score is -1.75 ± 0.62.

The substance FRAFLQITLILNCGSSASDV displayed an amyloid nucleation score of 3.45 ± 0.11.

Take FRCAE: the amyloid nucleation score is 3.84 ± 0.091.

As to FRCLTSSANISISTVWYVGH, the amyloid nucleation score stood at 4.61 ± 0.09.

FRDCYCRVVAPYDLHFVCTW returned an amyloid nucleation score of 0.573 ± 0.15.

In the case of FRGDILRFL, the amyloid nucleation score result is “inactive”.

Regarding FRGGSCYIVVWA, the amyloid nucleation score stood at 6.573 ± 0.04.

In turn, FRGIGWAC showed an amyloid nucleation score of 0.907 ± 0.47.

Regarding FRGITASYEPIGGARMSARE, the amyloid nucleation score is -0.001 ± 0.62.

Regarding FRGLYRARNGVIKRMGLGWH, the amyloid nucleation score came to 0.645 ± 0.47.

Substance FRGTCYMAIVDYLCNTFEGP gave an amyloid nucleation score of 1.37 ± 0.11.

For the substance FRIGFVFCVSYCRECRN, the amyloid nucleation score was determined as 0.065 ± 1.1.

Consider FRLRMRSGYSARLSRFFCPL, for which the amyloid nucleation score came out at 2.51 ± 0.077.

On to FRMWGLC, for which the amyloid nucleation score worked out at 0.43 ± 0.36.

For the substance FRSVFDKFLRYVFSFDVY, the amyloid nucleation score was -0.984 ± 0.76.

In turn, FRVMQNFHQSYGHYKWVFHF registered an amyloid nucleation score of 5.57 ± 0.057.

In turn, FRWCKRMGLCNLVNDLGCDW gave an amyloid nucleation score of 0.446 ± 0.64.

As to FRYCAGLMTYRLEFG, the amyloid nucleation score stood at 2.49 ± 0.068.

The substance FSFLGDPKNERTVSWVMGHR showed an amyloid nucleation score of 0.478 ± 0.32.

As for FSFRVMRHSKKGK, the amyloid nucleation score entry is “inactive”.

As to FSGHILGRPFDGRSLVCMS, the amyloid nucleation score result was “inactive”.

Consider FSIVFGI, for which the amyloid nucleation score came out at 1.17 ± 0.15.

FSKHCYIIMYDISRSKTSIF: the amyloid nucleation score is -0.525 ± 1.1.

Regarding FSMQSMSKGYVLRPLGMA, the amyloid nucleation score is -0.098 ± 0.3.

With FSQGYWLLMA, the amyloid nucleation score was determined as 0.305 ± 0.23.

In the case of FSQNIVSSRVVTYKMNCNGM, the amyloid nucleation score was 3.72 ± 0.044.

With FSRYNVCYFRVAKGNARLPF, the amyloid nucleation score was -0.541 ± 0.76.

Turning to FSVRLMAVRQGRLTAVGKSD, the amyloid nucleation score stood at 0.331 ± 0.42.

Take FSYLAI: the amyloid nucleation score is -0.896 ± 0.61.

For FTCNACGYERSSVAYRNNPL, the amyloid nucleation score was -0.22 ± 1.1.

FTDCHWSDLLRSFVAWYDIV came in with an amyloid nucleation score of 0.918 ± 0.58.

FTFIGGYVSYYRCIPIGILP displayed an amyloid nucleation score of 0.33 ± 0.74.

On to FTLALSYITRTKSTHAC, for which the amyloid nucleation score was -0.27 ± 1.1.

FTLLSMNRSGFIIRVPDAV had an amyloid nucleation score of 0.035 ± 0.24.

For the substance FTSLGMQLCYWHRISLCVSW, the amyloid nucleation score is -1.05 ± 0.61.

For the substance FTTPVSFSFVLRLITTPRTY, the amyloid nucleation score is -1.29 ± 0.75.

Consider FVCGGILFLLCFLE, for which the amyloid nucleation score is 2.56 ± 0.12.

Regarding FVFELGKWHCELFWYELCLS, the amyloid nucleation score entry was “inactive”.

FVFHWLFVSSRACILHPVVW showed an amyloid nucleation score of 0.604 ± 0.3.

As for FVFTLIWGHSSKLSESVSFL, the amyloid nucleation score entry was “inactive”.

FVHVPPILGAAVTVRAASPK gave an amyloid nucleation score of 0.284 ± 1.1.

Regarding FVIVNN, the amyloid nucleation score is -0.658 ± 1.

For the substance FVKYRSLGKWVLRVTGVMVD, the amyloid nucleation score result was “inactive”.

Consider FVQAVDVVWFGILLKVLFRS, for which the amyloid nucleation score entry was “inactive”.

In the case of FVRLTRIVESGYYDIFGKIK, the amyloid nucleation score is -0.429 ± 0.39.

As to FVSAHRYWCHMTLSAVMGLH, the amyloid nucleation score is 3.04 ± 0.12.

FVSHYHTAHTVEMASSQLTN returned an amyloid nucleation score of 0.503 ± 0.38.

Regarding FVVESVKVNRSLACF, the amyloid nucleation score was -0.205 ± 0.45.

For the substance FVYKTGYVSSVCYGIVVVVD, the amyloid nucleation score is -0.826 ± 0.5.

In the case of FWCCANRSLVISLI, the amyloid nucleation score was -0.907 ± 0.4.

As for FWDRMGLNEEVFQGSLSSAW, the amyloid nucleation score entry was “inactive”.

FWQVCPLYRSSCIGSGCCIK had an amyloid nucleation score of 1.78 ± 0.17.

With FWRVRVFGASLFL, the amyloid nucleation score result was “inactive”.

Consider FWSSCSLEVYRGFSFAH, for which the amyloid nucleation score came out at 3 ± 0.083.

In turn, FWSTTDILVGRTSHTGTVCV had an amyloid nucleation score of 0.118 ± 0.26.

In turn, FYCSNSKFW returned an amyloid nucleation score of 3.5 ± 0.074.

FYCWTTSDMFVRTSSIESP displayed an amyloid nucleation score of 1.09 ± 0.59.

Turning to FYCYNFFWFL, the amyloid nucleation score amounted to 6.085 ± 0.033.

FYEYTDTASAGPDETLYLRN came in with an amyloid nucleation score of 0.022 ± 0.63.

For FYFWVSDYQLGDMVNIMNLS, the amyloid nucleation score was -0.184 ± 1.1.

The substance FYHRGMMWMYKWGMARYRVC showed an amyloid nucleation score of 0.044 ± 0.44.

With FYIFPQAFRLWKSLS, the amyloid nucleation score entry is “inactive”.

For the substance FYIGFYSPGLCVRFKFFSAR, the amyloid nucleation score is -1.85 ± 1.1.

As for FYKLNGKNWSRVKVPHSWLF, the amyloid nucleation score result is “inactive”.

Regarding FYKLVAGNLANPCANRTCYL, the amyloid nucleation score was -0.031 ± 1.

FYMPLLMYVVAVRPMSGNLV: the amyloid nucleation score is -0.22 ± 1.

As to FYSLQFLTILLVTFMEATYP, the amyloid nucleation score was -0.165 ± 0.27.

FYTDPALISHTVEIILVLLI: the amyloid nucleation score entry is “inactive”.

Turning to FYTYDLSFMSNYSVLRVLCS, the amyloid nucleation score is -1.48 ± 0.62.

Take FYVLFGSF: the amyloid nucleation score was -2.07 ± 0.76.

Consider FYVPSS, for which the amyloid nucleation score is -0.158 ± 0.63.

On to FYVVALGYKIVLCTMFYMLE, for which the amyloid nucleation score was -1.16 ± 0.31.

On to FYVVFLNGVLLDYNDDLYGI, for which the amyloid nucleation score result was “inactive”.

Turning to FYYCRALWVYLVTCWHCLSY, the amyloid nucleation score is -0.864 ± 1.1.

Take GAAFILSIYYQPSTTPPLRA: the amyloid nucleation score was found to be 2.62 ± 0.084.

Take GAAHDSYMNRWLITWNSKCK: the amyloid nucleation score was -1.52 ± 0.76.

For GALRGGVTRLQILRCFFYFW, the amyloid nucleation score was 0.491 ± 0.74.

Take GASSF: the amyloid nucleation score result is “inactive”.

In the case of GCGGDKKDFVISFWWEKYFR, the amyloid nucleation score is -1.74 ± 0.53.

GCGSNSDLLHPGIFGLCKLV: the amyloid nucleation score was -0.3 ± 0.31.

In the case of GCGVL, the amyloid nucleation score was -0.91 ± 0.55.

Turning to GCIAIIDWMNLTLFTLLLSS, the amyloid nucleation score was -0.375 ± 0.76.

The substance GCLLRCDKRGGLRPSW showed an amyloid nucleation score of 0.66 ± 0.24.

Take GCNLFYCLTRSSIETNTSIS: the amyloid nucleation score came to 4.3 ± 0.095.

For GCVTSGMLMTLIIH, the amyloid nucleation score was -0.218 ± 0.48.

The substance GDFSFCTHLLSYNLRGWPVV displayed an amyloid nucleation score of 0.192 ± 0.74.

In turn, GDKLIEGRASGKGNWILERG returned an amyloid nucleation score of 1.19 ± 0.34.

GDYTYRG yielded an amyloid nucleation score of 0.773 ± 0.66.

GECRRWKFGLWENVPDMSIK: the amyloid nucleation score worked out at 0.177 ± 0.48.

Substance GELDGNRERILRRRGTMDYQ registered an amyloid nucleation score of 2.56 ± 0.091.

The substance GELRIYRLGHCVCVSMSLPA returned an amyloid nucleation score of 1.27 ± 0.36.

As for GEMYV, the amyloid nucleation score was -0.31 ± 1.

Turning to GEPLNGSAGLVGH, the amyloid nucleation score is 0.234 ± 0.34.

In the case of GEQSDFSSSYSYLLWKVWDG, the amyloid nucleation score was -1.2 ± 0.36.

Turning to GEYINAWSLNIV, the amyloid nucleation score was -0.683 ± 0.64.

As to GFCPLVRPSCESFRLQERLV, the amyloid nucleation score was -0.303 ± 0.63.

Take GFEQRGIRVMFVPYDINFSV: the amyloid nucleation score came to 6.269 ± 0.031.

As to GFIVRMDTMLSSALASYCRL, the amyloid nucleation score is -0.25 ± 0.63.

Consider GFRFLLKLLFGFKKV, for which the amyloid nucleation score result was “inactive”.

As for GFSLC, the amyloid nucleation score was found to be 0.541 ± 0.66.

For GFSSNLVVLKKPS, the amyloid nucleation score was -0.249 ± 1.1.

With GFVTDFIIKSI, the amyloid nucleation score was -1.07 ± 0.64.

GFWVDQNSDPNWVSQAPDFM: the amyloid nucleation score entry is “inactive”.

Substance GFYIKVFNSEWYALNLDVRL gave an amyloid nucleation score of 4.67 ± 0.075.

Take GGCVYSVTLFFTWTEWGKAK: the amyloid nucleation score is -0.516 ± 0.79.

The substance GGDSECGYNGVFVGYAVFWC gave an amyloid nucleation score of 0.128 ± 0.29.

GGGNCKKGYGCDVDCYESEG: the amyloid nucleation score is -0.735 ± 0.56.

In the case of GGLIE, the amyloid nucleation score was -0.817 ± 1.1.

For the substance GGLWTGLVSASKEFSK, the amyloid nucleation score entry was “inactive”.

Take GGPCDRGTFMMCDPWSFSLL: the amyloid nucleation score is 0.513 ± 0.39.

On to GGYIQRNNDNRFAEQV, for which the amyloid nucleation score entry is “inactive”.

For the substance GHFAF, the amyloid nucleation score was -0.159 ± 1.1.

Substance GHFRFEHCVSVSLSSIFSNE yielded an amyloid nucleation score of 1.55 ± 0.11.

GHVTYLVTAPHV returned an amyloid nucleation score of 2.89 ± 0.14.

Substance GIFGMC returned an amyloid nucleation score of 0.366 ± 0.56.

Take GIGMRQYMNT: the amyloid nucleation score came out at 0.823 ± 0.32.

For GIIDLHAYLFKVHEWAHPHR, the amyloid nucleation score came out at 6.07 ± 0.063.

As for GIIRSWNIRPLEMPKE, the amyloid nucleation score came to 0.176 ± 0.27.

As to GILGQGDYYLRN, the amyloid nucleation score is -0.422 ± 1.

As for GIMQCFGSMRMQWCNSDKEC, the amyloid nucleation score was found to be 5.021 ± 0.037.

As for GIPVMPTDSRGTPGVMVFEY, the amyloid nucleation score was -1.25 ± 1.

GISVLRQTVFDLSIFIPHTS had an amyloid nucleation score of 4.42 ± 0.055.

GIVRGYMLSHLFV: the amyloid nucleation score came to 0.262 ± 0.25.

Consider GKFCIFASMADLMEW, for which the amyloid nucleation score is -0.491 ± 0.42.

Substance GKGDVGESRADCLAYSRRMS showed an amyloid nucleation score of 0.868 ± 0.45.

Source of the values: the supplement of paper PMC12042874.
